The target in test [1] is T1, human CD3 (delta/epsilon heterodimer) (human, UniProt P07766 23-126; P04234 22-105).
T1 construct: captured on an anti-His chip, so it carries a His tag; also called huCD3
Description: SPR 37 C; CD3 delta/epsilon on anti-His chip, bispecific analyte; CD3 variant 2B5v598.

Test [2] addresses T2, human B7-H4 on cells (human, UniProt Q7Z7D3 25-282).
T2 sequence (looked up): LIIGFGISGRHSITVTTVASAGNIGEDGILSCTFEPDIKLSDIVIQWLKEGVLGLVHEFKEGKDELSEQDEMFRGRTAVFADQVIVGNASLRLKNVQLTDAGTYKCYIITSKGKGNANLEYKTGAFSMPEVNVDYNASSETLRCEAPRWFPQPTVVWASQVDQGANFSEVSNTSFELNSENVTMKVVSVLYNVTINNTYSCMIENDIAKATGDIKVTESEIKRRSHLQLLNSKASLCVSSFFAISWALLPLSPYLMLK
Kind of test: cell-based or functional assay.

In test [3] the target is T1, human CD3 (delta/epsilon heterodimer). Kind of test: SPR 37 C; CD3 delta/epsilon on anti-His chip, bispecific analyte; CD3 variant 2B5c707.

Consider 2 molecules from patent US20220017622A1 (Pfizer, published 2022).

T1 sequence (P07766 23-126, stated change not applied, chain 1 of 2): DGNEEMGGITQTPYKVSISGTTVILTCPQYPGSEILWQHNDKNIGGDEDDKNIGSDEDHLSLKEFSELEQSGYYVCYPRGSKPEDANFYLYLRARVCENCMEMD
T1 sequence (P04234 22-105, stated change not applied, chain 2 of 2): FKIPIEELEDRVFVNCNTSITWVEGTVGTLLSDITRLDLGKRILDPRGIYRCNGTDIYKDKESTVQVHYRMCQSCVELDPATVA

B1: B7-H4xCD3 bispecific antibody 0087 (bispecific antibody, IgG2)
heavy 1: QVQLQQWGAGLLKPSETLSLTCAVYGGSFSGYYWNWIRQPPGKGLEWIGEINHSGSTKYNPSLKSRVTISGDTSKNQFSLKLNSVTAADTAVYYCVRGLYNWNVDSWGQGTLVTVSSASTKGPSVFPLAPCSRSTSESTAALGCLVKDYFPEPVTVSWNSGALTSGVHTFPAVLQSSGLYSLSSVVTVPSSNFGTQTYTCNVDHKPSNTKVDKTVERKCEVECPECPAPPVAGPSVFLFPPKPKDTLMISRTPEVTCVVVAVSHEDPEVQFNWYVDGVEVHNAKTKPREEQFNSTFRVVSVLTVVHQDWLNGKEYKCKVSNKGLPSSIEKTISKTKGQPREPQVYTLPPSREEMTKNQVSLTCEVKGFYPSDIAVEWESNGQPENNYKTTPPMLDSDGSFFLYSKLTVDKSRWQQGNVFSCSVMHEALHNHYTQKSLSLSPG
light 1: DIQMTQSPSSLSASVGDRVTITCRASQGIRNDLGWYQQKPGKAPKRLIYVASSLQSGVPSRFSGSGSGTEFTLTISSLQPEDFATYYCLQHNSYPYTFGQGTKLEIKRTVAAPSVFIFPPSDEQLKSGTASVVCLLNNFYPREAKVQWKVDNALQSGNSQESVTEQDSKDSTYSLSSTLTLSKADYEKHKVYACEVTHQGLSSPVTKSFNRGEC
heavy 2: EVQLVESGGGLVQPGGSLRLSCAASGFTFSDYYMTWVRQAPGKGLEWVAFIRNQDRGYTSDHQPSVKGRFTISRDNAKNSLYLQMNSLRAEDTAVYYCARDRPSYYVLDYWGQGTTVTVSSASTKGPSVFPLAPCSRSTSESTAALGCLVKDYFPEPVTVSWNSGALTSGVHTFPAVLQSSGLYSLSSVVTVPSSNFGTQTYTCNVDHKPSNTKVDKTVERKCRVRCPRCPAPPVAGPSVFLFPPKPKDTLMISRTPEVTCVVVAVSHEDPEVQFNWYVDGVEVHNAKTKPREEQFNSTFRVVSVLTVVHQDWLNGKEYKCKVSNKGLPSSIEKTISKTKGQPREPQVYTLPPSREEMTKNQVSLTCLVKGFYPSDIAVEWESNGQPENNYKTTPPMLDSDGSFFLYSRLTVDKSRWQQGNVFSCSVMHEALHNHYTQKSLSLSPG
light 2: DIQMTQSPSSLSASVGDRVTITCTSDQSLFNVRSGKNYLAWYQQKPGKAPKLLIYWASDRESGVPSRFSGSGSGTDFTLTISSLQPEDFATYYCKQSYDLFTFGGGTKVEIKRTVAAPSVFIFPPSDEQLKSGTASVVCLLNNFYPREAKVQWKVDNALQSGNSQESVTEQDSKDSTYSLSSTLTLSKADYEKHKVYACEVTHQGLSSPVTKSFNRGEC
notes: Chains 1-2: B7-H4 arm; chains 3-4: CD3 arm; IgG2; also called CD3 variant 2B5v598
With B1, in test [1], the affinity, expressed as Kd, was 124 nM; the koff (as a rule, the rate constant with which the complex falls apart) came out at 0.0254 s⁻¹; the kon – broadly, the second-order rate constant of association – was 205000 M⁻¹ s⁻¹. In addition, in test [2], the “T cell mediated tumor cell killing EC50, HCC1954-Luc” value worked out at 57 nM and the “T cell mediated tumor cell killing, MDA-MB-468” value worked out at 109.

B2: B7-H4xCD3 bispecific antibody 0088 (bispecific antibody, IgG2)
heavy 1: QVQLQQWGAGLLKPSETLSLTCAVYGGSFSGYYWNWIRQPPGKGLEWIGEINHSGSTKYNPSLKSRVTISGDTSKNQFSLKLNSVTAADTAVYYCVRGLYNWNVDSWGQGTLVTVSSASTKGPSVFPLAPCSRSTSESTAALGCLVKDYFPEPVTVSWNSGALTSGVHTFPAVLQSSGLYSLSSVVTVPSSNFGTQTYTCNVDHKPSNTKVDKTVERKCEVECPECPAPPVAGPSVFLFPPKPKDTLMISRTPEVTCVVVAVSHEDPEVQFNWYVDGVEVHNAKTKPREEQFNSTFRVVSVLTVVHQDWLNGKEYKCKVSNKGLPSSIEKTISKTKGQPREPQVYTLPPSREEMTKNQVSLTCEVKGFYPSDIAVEWESNGQPENNYKTTPPMLDSDGSFFLYSKLTVDKSRWQQGNVFSCSVMHEALHNHYTQKSLSLSPG
light 1: DIQMTQSPSSLSASVGDRVTITCRASQGIRNDLGWYQQKPGKAPKRLIYVASSLQSGVPSRFSGSGSGTEFTLTISSLQPEDFATYYCLQHNSYPYTFGQGTKLEIKRTVAAPSVFIFPPSDEQLKSGTASVVCLLNNFYPREAKVQWKVDNALQSGNSQESVTEQDSKDSTYSLSSTLTLSKADYEKHKVYACEVTHQGLSSPVTKSFNRGEC
heavy 2: EVQLVESGGGLVQPGGSLRLSCAASGFTFSDYYMTWVRQAPGKGLEWVAFIRNQARGYTSDHNPSVKGRFTISRDNAKNSLYLQMNSLRAEDTAVYYCARDRHSYYVLDYWGQGTTVTVSSASTKGPSVFPLAPCSRSTSESTAALGCLVKDYFPEPVTVSWNSGALTSGVHTFPAVLQSSGLYSLSSVVTVPSSNFGTQTYTCNVDHKPSNTKVDKTVERKCRVRCPRCPAPPVAGPSVFLFPPKPKDTLMISRTPEVTCVVVAVSHEDPEVQFNWYVDGVEVHNAKTKPREEQFNSTFRVVSVLTVVHQDWLNGKEYKCKVSNKGLPSSIEKTISKTKGQPREPQVYTLPPSREEMTKNQVSLTCLVKGFYPSDIAVEWESNGQPENNYKTTPPMLDSDGSFFLYSRLTVDKSRWQQGNVFSCSVMHEALHNHYTQKSLSLSPG
light 2: DIQMTQSPSSLSASVGDRVTITCTSSQSLFNVRSQKNYLAWYQQKPGKAPKLLIYWASTRESGVPSRFSGSGSGTDFTLTISSLQPEDFATYYCKQSYYLFTFGGGTKVEIKRTVAAPSVFIFPPSDEQLKSGTASVVCLLNNFYPREAKVQWKVDNALQSGNSQESVTEQDSKDSTYSLSSTLTLSKADYEKHKVYACEVTHQGLSSPVTKSFNRGEC
notes: Chains 1-2: B7-H4 arm; chains 3-4: CD3 arm; IgG2; also called CD3 variant 2B5c707
Turning to B2, in test [3], the affinity, expressed as Kd, was 134 nM; the off-rate constant (koff) came to 0.0689 s⁻¹; the kon was found to be 511000 M⁻¹ s⁻¹. Further, in test [2], the “T cell mediated tumor cell killing EC50, HCC1954-Luc” value came to 140 nM and the “T cell mediated tumor cell killing, MDA-MB-468” value turned out to be 655.
